pKd: −log10 of the molar value.
What was measured:
[1] = system: SARS1-N/M (SUD-N/M) (SARS-CoV); assay: zone-interference gel electrophoresis
[2] = system: SARS2-N/M (SUD-N/M) (SARS-CoV-2 (WA1)); assay: zone-interference gel electrophoresis

Work on BCL2 G4 quadruplex oligonucleotide yielded a pKd [1] of 5.80 and a pKd [2] of 5.39.

— PMC11343135
